Measured values as given in PMC12630831 (Nature Communications, 2025).
Where a chain is given by its changes, count along the chain named. In names and notes the source's numbering stands.

Biological target: the molecule itself
Test: SDS-PAGE under DTT-free conditions with western blot

B1: FLAG-tagged PRDX1 C83A expressed in HEK293 cells (natural protein, UniProt Q06830 1-199, looked up)
chain: MSSGNAKIGHPAPNFKATAVMPDGQFKDISLSDYKGKYVVFFFYPLDFTFVCPTEIIAFSDRAEEFKKLNCQVIGASVDSHFAHLAWVNTPKKQGGLGPMNIPLVSDPKRTIAQDYGVLKADEGISFRGLFIIDDKGILRQITVNDLPVGRSVDETLRLVQAFQFTDKHGEVCPAGWKPGSDTIKPDVQKSKEYFSKQK
Q: For B1, which “stoichiometry N” value is on record?
A: 2

B2: FLAG-tagged WT PRDX1 expressed in HEK293 cells (natural protein, UniProt Q06830 1-199, looked up)
chain: B1 chain with A83C
Q: With B2 as the protein, how does the “stoichiometry N” value read?
A: 2
